This is an account of results in paper PMC4683619.

The target of this test is TNFR1 on L929 cells (mouse (endogenous in L929)) (UniProt P25118).
UniProt P25118, sequence (P25118 30-454): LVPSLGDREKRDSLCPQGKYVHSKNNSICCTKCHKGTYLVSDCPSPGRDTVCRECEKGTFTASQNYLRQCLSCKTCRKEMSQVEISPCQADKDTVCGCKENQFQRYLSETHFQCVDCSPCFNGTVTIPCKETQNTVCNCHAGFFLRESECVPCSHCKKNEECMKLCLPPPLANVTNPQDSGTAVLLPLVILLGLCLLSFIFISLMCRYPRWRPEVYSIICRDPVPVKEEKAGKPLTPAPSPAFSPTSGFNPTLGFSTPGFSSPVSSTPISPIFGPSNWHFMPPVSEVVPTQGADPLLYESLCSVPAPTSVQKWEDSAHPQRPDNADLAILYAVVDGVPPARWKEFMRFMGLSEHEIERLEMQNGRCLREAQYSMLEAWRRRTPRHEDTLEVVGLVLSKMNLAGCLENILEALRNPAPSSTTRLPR

Substance “PRINT PEG5K scTNF-α (N-terminal mono-PEGylated single-chain TNF-α) (ligand)” registered a cytotoxicity against L929 cells (WST-1, with actinomycin D, 24 h), EC50 of 0.00058 ng/mL.
The figure for “PRINT PEG20K scTNF-α (N-terminal mono-PEGylated single-chain TNF-α) (ligand)” is 0.00062 ng/mL; for citraconylated scTNF-α (ligand) it is 0.0076 ng/mL; for “randomly PEGylated scTNF-α (directly PEGylated PEG5K scTNF-α) (ligand)” it is 0.0046 ng/mL.
“recombinant single-chain TNF-α, His tag cleaved, unmodified (ligand)”: the cytotoxicity against L929 cells (WST-1, with actinomycin D, 24 h), EC50 is 0.00035 ng/mL.
